According to patent US20160159910A1 (Genentech, published 2016):
Numbering of substitutions follows the chain as printed. Names and notes keep the numbering of the source.

B1: hu22C10v2.7-vc-MMAE (antibody)
heavy: not shown
light: DIQMTQSPSSLSASVGDRVTITCSATSSISYMHWYQQKPGKAPKGWIYDTSKLAHGVPSRFSGSGSGTDFTLTISSLQPEDFATYYCHQRRSYPFTFGQGTKVEIKRTVAAPSVFIFPPSDEQLKSGTASVVCLLNNFYPREAKVQWKVDNALQSGNSQESVTEQDSKDSTYSLSSTLTLSKADYEKHKVYACEVTHQGLSSPVTKSFNRGEC
modifications: MC-vc-PAB-MMAE conjugated to reduced cysteine residues of the antibody (sites not given); DAR ~3
B2: hu22C10v2.7 IgG1 A118C-vc-MMAE (antibody)
heavy: not shown
light: B1 light
modifications: MC-vc-PAB-MMAE on the engineered cysteine A118C (EU numbering); DAR ~2
B3: humanized 1D11.v1.9 (antibody, V domains shown)
VH: EVQLVQSGAEVKKPGASVKVSCKASGYTFTSYWIGWVRQAPGQGLEWIGDIYPGGGYTNYNEKFKGRVTITRDTSTSTAYLELSSLRSEDTAVYYCARLDGSSYRGAMDSWGQGTLVTVSS
VL: DIQMTQSPSSLSASVGDRVTITCKASQGFNKYVAWYQQKPGKAPKLLIYYTSTLQPGVPSRFSGSGSGRDYTLTISSLQPEDFATYYCLQYGNLLYAFGQGTKVEIKR
notes: also called hu1D11.v1.9; h1D11.v1.9
B4: ch1D11, slightly modified version with light chain C43G (antibody, V domains shown)
VH: QVQLQQSGAELVRPGTSVKMSCKASGYTFTSYWIGWAKQRPGHGFEWIGDIYPGGGYTNYNEKFKGKATLTADKSSSTAYMQFSSLTSEDSAIYYCARLDGSSYRGAMDSWGQGTSITVSS
VL: DIQMTQSPSSLSASLGGKVTITCKASQGFNKYVAWYQHKPGQGPRLLIHYTSTLQPGIPARFSGSGSGRDYSFSISNLEPEDSATYFCLQYGNLLYAFGGGTKLEIKR
notes: Human IgG1 / human kappa chimeric antibody; Dylight-488 or -650 labeled in the assay; also called ch1D11 (C43G)
B5: hu1D11v1.9-varD-vc-MMAE (antibody)
heavy: not shown
light: DIQMTQSPSSLSASVGDRVTITCKASQGFNKYVAWYQQKPGKAPKLLIYYTSTLQPGVPSRFSGSGSGRDYTLTISSLQPEDFATYYCLQYGDLLYAFGQGTKVEIKRTVAAPSVFIFPPSDEQLKSGTASVVCLLNNFYPREAKVQWKVDNALQSGNSQESVTEQDSKDSTYSLSSTLTLSKADYEKHKVYACEVTHQGLSSPVTKSFNRGEC
modifications: MC-vc-PAB-MMAE conjugated to reduced cysteine residues of the antibody (sites not given); DAR ~3
B6: hu1D11v1.9-varD IgG1 A118C-vc-MMAE (antibody)
heavy: not shown
light: B5 light
modifications: MC-vc-PAB-MMAE on the engineered cysteine A118C (EU numbering); DAR ~2

Assays:
human B7-H4 = target: T1, human B7-H4 (human, UniProt Q7Z7D3 29-282); experiment: cell-based or functional assay
T1 sequence: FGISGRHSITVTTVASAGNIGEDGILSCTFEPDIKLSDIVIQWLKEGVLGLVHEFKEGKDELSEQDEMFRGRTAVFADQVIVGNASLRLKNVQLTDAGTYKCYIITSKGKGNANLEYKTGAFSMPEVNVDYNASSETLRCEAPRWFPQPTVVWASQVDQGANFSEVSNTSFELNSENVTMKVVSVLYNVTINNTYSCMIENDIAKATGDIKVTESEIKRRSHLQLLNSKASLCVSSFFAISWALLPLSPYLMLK

mouse B7-H4 = target: T2, mouse B7-H4 (mouse, UniProt Q7TSP5 29-283); experiment: FACS titration on 293 cells expressing recombinant mouse B7-H4 (panel '293-mouse B7-H4', lower block), geometric mean fluorescence
T2 construct: On stably transfected 293 cells; also called muB7-H4; recombinant mouse B7-H4
T2 sequence: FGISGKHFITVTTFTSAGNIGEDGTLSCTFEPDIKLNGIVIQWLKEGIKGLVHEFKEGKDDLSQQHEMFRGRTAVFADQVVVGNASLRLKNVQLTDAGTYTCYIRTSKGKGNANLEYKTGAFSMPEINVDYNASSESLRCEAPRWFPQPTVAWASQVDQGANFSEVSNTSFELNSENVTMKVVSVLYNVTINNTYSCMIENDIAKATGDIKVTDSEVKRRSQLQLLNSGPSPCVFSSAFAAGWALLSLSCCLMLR
Procedure: The fluorescent signal was acquired with a BD FACS Calibur and EC₅₀ values were determined with the Graph Pad program Prism 4.

[1] = target: T3, human B7-H4 S114A glycosylation mutant (human, UniProt Q7Z7D3 29-282); experiment: FACS on 293 cells transfected with S114A human B7-H4 (glycosylation independence)
T3 construct: Full-length human B7-H4 membrane construct with S114 changed to alanine to prevent N-linked glycosylation at N112-S114; transiently expressed on 293 cells; also called mutated S114A human B7-H4; recombinant human B7-H4 S114A
T3 sequence: T1 sequence with S86A

Binder | EC50 of in vitro killing (CellTiter-Glo cell viability, 4 days) of 293 cells over-expressing recombinant human B7-H4 (human B7-H4) | other results
B1 | 0.0339 µg/mL | 
B2 | 0.0405 µg/mL | 
B3 |  | EC50 (mouse B7-H4): 0.36 µg/mL
B4 |  | fold binding over the isotype control [1]: 100 fold
B5 | 0.0554 µg/mL | 
B6 | 0.0819 µg/mL | 
